Like-named read-outs stand apart in the source and are kept apart here.
Columns and labels:
Experiment in all cases: cell-based or functional assay
[1] = target: HA of ca A/Wuhan/359/95 (H3N2) virus (influenza A virus)
[2] = target: HA of ca A/Wuhan/359/95 (H3N2) virus (influenza A virus); remark: listed apart in the source
[3] = target: HA of ca A/Beijing/262/95 (H1N1) virus (influenza A virus)
[4] = target: HA of H3-LA87 (A/Los Angeles/7/09 (H3N2)) virus (influenza A virus)
[5] = target: HA of ca A/Panama/2007/99 (H3N2) virus (influenza A virus)
[6] = target: HA of ca A/Texas/36/91 (H1N1) virus (influenza A virus)
[7] = target: HA of ca A/Perth/16/09 (H3N2) virus (influenza A virus)
[8] = target: HA of ca A/Sydney/5/97 (H3N2) virus (influenza A virus)
[9] = target: HA of ca A/New Caledonia/20/99 (H1N1) virus (influenza A virus)
[10] = target: HA of A/Fort Monmouth/1/47 (H1N1) virus (influenza A virus)
HA of H1-BS10 virus = target: HA of H1-BS10 virus
[11] = target: HA of A/Kawasaki/9/86 (H1N1) virus (influenza A virus)
[12] = target: HA of A/Victoria/3/75 (H3N2) virus (influenza A virus, UniProt P03435 17-567)
Sequence of HA of A/Victoria/3/75 (H3N2) virus (P03435 17-567 limits assumed): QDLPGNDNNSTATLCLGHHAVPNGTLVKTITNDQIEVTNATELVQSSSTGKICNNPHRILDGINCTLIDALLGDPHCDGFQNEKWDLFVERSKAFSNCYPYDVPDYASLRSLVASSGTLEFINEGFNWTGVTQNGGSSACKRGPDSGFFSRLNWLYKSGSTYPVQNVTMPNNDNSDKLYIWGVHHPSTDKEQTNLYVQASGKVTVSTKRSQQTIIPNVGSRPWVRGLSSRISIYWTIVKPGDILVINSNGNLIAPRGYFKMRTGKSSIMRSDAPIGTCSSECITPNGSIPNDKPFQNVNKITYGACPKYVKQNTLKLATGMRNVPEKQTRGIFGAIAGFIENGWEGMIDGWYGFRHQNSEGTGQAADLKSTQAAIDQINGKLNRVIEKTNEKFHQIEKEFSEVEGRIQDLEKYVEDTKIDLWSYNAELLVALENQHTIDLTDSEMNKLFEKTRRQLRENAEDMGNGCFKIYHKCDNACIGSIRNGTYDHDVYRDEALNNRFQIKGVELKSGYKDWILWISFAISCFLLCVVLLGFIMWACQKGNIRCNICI

[13] = target: HA of A/Wisconsin/67/05 (H3N2) virus (influenza A virus)
[14] = target: HA of A/Hong Kong/8/68 (H3N2) virus (influenza A virus)
[15] = target: HA of A/Victoria/361/11 (H3N2) virus (influenza A virus)
[16] = target: HA of A/Puerto Rico/8/34 (H1N1) virus (influenza A virus, UniProt P03452 18-565)
Sequence of HA of A/Puerto Rico/8/34 (H1N1) virus (P03452 18-565 limits assumed): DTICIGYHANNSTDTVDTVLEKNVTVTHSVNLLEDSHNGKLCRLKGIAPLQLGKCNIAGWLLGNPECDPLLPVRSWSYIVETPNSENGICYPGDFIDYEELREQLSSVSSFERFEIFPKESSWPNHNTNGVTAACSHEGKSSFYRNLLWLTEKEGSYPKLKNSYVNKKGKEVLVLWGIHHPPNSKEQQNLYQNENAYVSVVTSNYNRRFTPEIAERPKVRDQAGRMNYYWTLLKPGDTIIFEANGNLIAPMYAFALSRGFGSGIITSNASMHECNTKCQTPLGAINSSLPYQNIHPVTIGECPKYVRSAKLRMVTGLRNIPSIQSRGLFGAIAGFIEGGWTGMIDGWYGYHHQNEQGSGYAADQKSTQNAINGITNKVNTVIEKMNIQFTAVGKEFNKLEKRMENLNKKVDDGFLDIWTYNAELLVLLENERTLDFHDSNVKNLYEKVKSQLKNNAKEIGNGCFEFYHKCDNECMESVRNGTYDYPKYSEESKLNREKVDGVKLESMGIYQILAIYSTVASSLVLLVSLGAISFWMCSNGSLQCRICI

B1: Antibody 8 (antibody, V domains shown)
VH: QVQLQQSGPGLVKPSQTLSLTCVISGDTVSSNRATWNWMRQSPLRGLEWLGRTYYRSKWYNDYAVSVKSRVVINPDTSKNQVSLQLNTVTPDDSGVYFCARGGHITVFGVNIDAFDIWGLGTKVTVSS
VL: DIQMTQSPSSLSASVGDRVTISCRASQRLNSYLHWYQQTPGQAPKLLIYATSTLQSGVSPRFSGSGSGTDFTLTISSLQPEDVATYYCQLSRTFGHGTKVEIK
Neutralization IC50, H3-WH95 [1]: > 50 µg/mL

B2: Antibody 5 (antibody, V domains shown)
VH: QVQLQQSGPGLVKPSQTLSLTCAISGDRVSSNSAVWNWIRQSPSRGLEWLGRTYYRSKWYYDYAESVKSRIVIDPDTSKNQVSLQLNSVTPEDSAIYYCARGGHITVFGLNIDAYDIWGQGAMVTVSS
VL: DIQMTQSPSSLSASVGDRVTISCRAQSLSSYLHWYQQKPGQPPKLLIYAATTLQSGVPSRFSGSGSGTDFTLTISTFQAEDVATYYCQQSRTFGQGTKVEIK
Neutralization IC50, H3-WH95 [1]: 3.72 µg/mL

B3: Antibody 6 (antibody, V domains shown)
VH: QVQLQQSGPGLVKPSQTLSLTCAISGDRVSSNSAVWNWIRQSPSRGLEWLGRTYYRSKWYYDYAESVKSRIVIDPDTSKNQVSLQLNSVTPEDSAIYYCARGGHITEFGLNIDAYDIWGQGAMVTVSS
VL: DIQMTQSPSSLSASVGDRVTISCRAQSLSSYLHWYQQKPGQPPKLLIYAATTLQSGVPSRFSGSGSGTDFTLTISTFQAEDVATYYCQQSRTFGQGTKVEIK
Neutralization IC50, H3-WH95 [1]: 10.5 µg/mL

B4: Antibody 11 (antibody, V domains shown)
VH: QVQLQQSGPGLVKPSQTLSLTCAISGDSVSSYNAVWNWIRQSPSRGLEWLGRTYYRSGWYNDYAESVKSRITINPDTSKNQFSLQLNSVTPEDTAVYYCARSGHITVFGVNVDAFDMWGQGTMVTVSS
VL: DIQMTQSPSSLSASVGDRVTITCRTSQSLSSYTHWYQQKPGKAPKLLIYAASSRLSGVPSRFSGSGSGTDFTLTISSLQPEDFATYYCQQSRTFGQGTKVEIK
Neutralization IC50, H3-WH95 [2]: 2.45 µg/mL
Neutralization IC50, H3-WH95-OR [2]: 2.26 µg/mL
Neutralization IC50, H1-BJ95 [3]: 1.01 µg/mL
Neutralization IC50, H3-LA87 [4]: 0.8 µg/mL
Neutralization IC50, H3-Pa99 [5]: 2.18 µg/mL
Neutralization IC50, H1-TX91 [6]: 0.11 µg/mL
Neutralization IC50, H3-Perth09 [7]: 0.17 µg/mL
Neutralization IC50, H3-Syd97 [8]: 1.53 µg/mL
Neutralization IC50, H1-Ncal99 [9]: 0.66 µg/mL
Neutralization IC50, H1-FM47 [10]: 0.43 µg/mL
Neutralization IC50, H1-BS10 (HA of H1-BS10 virus): 1.15 µg/mL
Neutralization IC50, H1-Kaw86 [11]: 0.53 µg/mL
Neutralization IC50, H3-Vic75 [12]: 0.46 µg/mL
Neutralization IC50, H3-Wl05 [13]: 1.07 µg/mL
Neutralization IC50, H3-HK68 [14]: 0.46 µg/mL
Neutralization IC50, H3-VC11 [15]: 0.85 µg/mL

B5: Antibody 10 (antibody, V domains shown)
VH: QVQLQQSGPGLVKPSQTLSLTCAISGDSVSSNSATWNWIRQSPSRGLEWLGRTYYRSKWYNDYADFLKRRITINPDTSNNEVSLRLTSVTPDDTALYYCARGGHITVFGVNIDAFDVWGQGTMVTVSS
VL: DIQMTQSPSSLSASVGDRITISCRTSQSLRSYLHWYQQKPGKAPKLLIYASSTLQSGVPSRFSGSGSGTDFTLTISNLQPEDFATYYCQLSRTFGQGTKVEIK
Neutralization IC50, H3-WH95 [1]: 8.7 µg/mL

B6: Antibody 14 (antibody, V domains shown)
VH: QVQLQQSGPGLVKPSQTLSLTCAISGDSVSSNNAVWNWIRQSPSRGLEWLGRTYYRSKWYNDYAESVKSRITINPDTSKNQFSLQLNSVTPEDTAVYYCARSGHITVFGVNVDAFDMWGQGTTVTVSS
VL: DIQMTQSPSSLSASVGDRVTITCRTSQSLSSYTHWYQQKPGKAPKLLIYAASSRLSGVPSRFSGSGSGTDFTLTISSLQPEDFATYYCQQSRTFGQGTKVEIK
Neutralization IC50, H3-WH95 [2]: 2.77 µg/mL
Neutralization IC50, H3-WH95-OR [2]: 3.09 µg/mL
Neutralization IC50, H1-BJ95 [3]: 2.09 µg/mL
Neutralization IC50, H3-LA87 [4]: 0.83 µg/mL
Neutralization IC50, H3-Pa99 [5]: 4.36 µg/mL
Neutralization IC50, H1-TX91 [6]: 0.09 µg/mL
Neutralization IC50, H3-Perth09 [7]: 0.47 µg/mL
Neutralization IC50, H3-Syd97 [8]: 1.82 µg/mL
Neutralization IC50, H1-Ncal99 [9]: 0.67 µg/mL
Neutralization IC50, H1-FM47 [10]: 0.44 µg/mL
Neutralization IC50, H1-BS10 (HA of H1-BS10 virus): 1.93 µg/mL
Neutralization IC50, H1-Kaw86 [11]: 0.35 µg/mL
Neutralization IC50, H3-Vic75 [12]: 0.44 µg/mL
Neutralization IC50, H3-Wl05 [13]: 1.19 µg/mL
Neutralization IC50, H3-HK68 [14]: 0.65 µg/mL
Neutralization IC50, H3-VC11 [15]: 1.15 µg/mL

B7: Antibody 15 (antibody, V domains shown)
VH: QVQLQQSGPGLVKPSQTLSLTCAISGDSVSSNNAVWNWIRQSPSRGLEWLGRTYYRSKWYNDYAESVKSRITINPDTSKNQFSLQLNSVTPEDTAVYYCARSGHITVFGVNVDAFDMWGQGTTVTVSS
VL: DIQMTQSPSSLSASVGDRVTITCRTSQSLSSYTHWYQQKPGKAPKLLIYAASSRGSGVPSRFSGSGSGTDFTLTISSLQPEDFATYYCQQSRTFGQGTKVEIK
Neutralization IC50, H3-WH95 [2]: 3.32 µg/mL
Neutralization IC50, H3-WH95-OR [2]: 3.48 µg/mL
Neutralization IC50, H1-BJ95 [3]: 1.81 µg/mL
Neutralization IC50, H3-LA87 [4]: 0.83 µg/mL
Neutralization IC50, H3-Pa99 [5]: 3.39 µg/mL
Neutralization IC50, H1-TX91 [6]: 0.13 µg/mL
Neutralization IC50, H3-Perth09 [7]: 0.5 µg/mL
Neutralization IC50, H3-Syd97 [8]: 1.79 µg/mL
Neutralization IC50, H1-Ncal99 [9]: 0.79 µg/mL
Neutralization IC50, H1-FM47 [10]: 0.35 µg/mL
Neutralization IC50, H1-BS10 (HA of H1-BS10 virus): 1.89 µg/mL
Neutralization IC50, H1-Kaw86 [11]: 0.48 µg/mL
Neutralization IC50, H3-Vic75 [12]: 0.35 µg/mL
Neutralization IC50, H3-Wl05 [13]: 1.3 µg/mL
Neutralization IC50, H3-HK68 [14]: 0.5 µg/mL
Neutralization IC50, H3-VC11 [15]: 1.29 µg/mL

B8: Antibody 13 (antibody, V domains shown)
VH: QVQLQQSGPGLVKPSQTLSLTCAISGDSVSSYNAVWNWIRQSPSRGLEWLGRTYYRSGWYNDYAESVKSRITINPDTSKNQFSLQLNSVTPEDTAVYYCARSGHITVFGVNVDAFDMWGQGTMVTVSS
VL: DIQMTQSPSSLSASVGDRVTITCRTSQSLSSYDHWYQQKPGKAPKLLIYAASSRLSGVPSRFSGSGSGTDFTLTISSLQPEDFATYYCQQSRTFGQGTKVEIK
Neutralization IC50, H3-WH95 [2]: 2.77 µg/mL
Neutralization IC50, H3-WH95-OR [2]: 3.01 µg/mL
Neutralization IC50, H1-BJ95 [3]: 1.86 µg/mL
Neutralization IC50, H3-LA87 [4]: 1 µg/mL
Neutralization IC50, H3-Pa99 [5]: 2.62 µg/mL
Neutralization IC50, H1-TX91 [6]: 0.09 µg/mL
Neutralization IC50, H3-Perth09 [7]: 0.28 µg/mL
Neutralization IC50, H3-Syd97 [8]: 2.18 µg/mL
Neutralization IC50, H1-Ncal99 [9]: 0.77 µg/mL
Neutralization IC50, H1-FM47 [10]: 0.5 µg/mL
Neutralization IC50, H1-BS10 (HA of H1-BS10 virus): 1.23 µg/mL
Neutralization IC50, H1-Kaw86 [11]: 0.41 µg/mL
Neutralization IC50, H3-Vic75 [12]: 0.43 µg/mL
Neutralization IC50, H3-Wl05 [13]: 1.19 µg/mL
Neutralization IC50, H3-HK68 [14]: 0.44 µg/mL
Neutralization IC50, H3-VC11 [15]: 1.03 µg/mL

B9: Antibody 3 (antibody, V domains shown)
VH: QVQLQESGPGLVKPSQTLSLTCAISGDSVSSNNAVWNWIRQSPSRGLEWLGRTYYRSKWYNDYAESVKSRITVNPDTSKNQFSLHLKSVTPEDTAVFYCVRSGHITVFGVNVDAFDMWGQGTMVTVSS
VL: DIQMTQSPSSLSASVGDRVTITCRTSQSLSSYLHWYQQKPGKAPKLLIYAASSLQSGVPSRFSGSGSGTDFTLTISSLQPEDFATYYCQQSRTFGQGTKVEIK
Neutralization IC50, H3-WH95 [2]: 5.63 µg/mL
Neutralization IC50, H3-WH95-OR [2]: 7.7 µg/mL
IC50 (read off the curve) [16]: ~0.6 µg/mL
Neutralization IC50, H3-WH95 [1]: 3.96 µg/mL

B10: Antibody 12 (antibody, V domains shown)
VH: QVQLQQSGPGLVKPSQTLSLTCAISGDSVSSYNAVWNWIRQSPSRGLEWLGRTYYRSGWYNDYAESVKSRITINPDTSKNQFSLQLNSVTPEDTAVYYCARSGHITVFGVNVDAFDMWGQGTMVTVSS
VL: DIQMTQSPSSLSASVGDRVTITCRTSQSLSSYTHWYQQKPGKAPKLLIYAASSRGSGVPSRFSGSGSGTDFTLTISSLQPEDFATYYCQQSRTFGQGTKVEIK
Neutralization IC50, H3-WH95 [2]: 2.09 µg/mL
Neutralization IC50, H3-WH95-OR [2]: 2.34 µg/mL
Neutralization IC50, H1-BJ95 [3]: 1.31 µg/mL
Neutralization IC50, H3-LA87 [4]: 0.82 µg/mL
Neutralization IC50, H1-TX91 [6]: 0.12 µg/mL
Neutralization IC50, H3-Perth09 [7]: 0.25 µg/mL
Neutralization IC50, H3-Syd97 [8]: 1.56 µg/mL
Neutralization IC50, H1-Ncal99 [9]: 0.61 µg/mL
Neutralization IC50, H1-FM47 [10]: 0.28 µg/mL
Neutralization IC50, H1-BS10 (HA of H1-BS10 virus): 1.25 µg/mL
Neutralization IC50, H1-Kaw86 [11]: 0.28 µg/mL
Neutralization IC50, H3-Vic75 [12]: 0.32 µg/mL
Neutralization IC50, H3-HK68 [14]: 0.42 µg/mL
Neutralization IC50, H3-VC11 [15]: 0.83 µg/mL
IC50 (read off the curve) [16]: ~0.5 µg/mL
